Read-outs that look alike come from different tables or passages of the source. Values belong to the binder of their own block, whether it stands above or below them.
Legend:
[1] = target: T1, FcγRIIIa on Jurkat effector cells (FcγRIIIa reporter bioassay); experiment: cell-based or functional assay
[2] = target: T2, human CTLA4-Fc (R&D #7268-CT) (human, UniProt P16410 36-162); experiment: huCTLA4-Fc binding ELISA (luminescence)
T2 construct: Bought reagent coated on ELISA plates; also called human CTLA-Fc; not shown: Fc part of the bought fusion; not described
T2 sequence (P16410 36-162 limits assumed): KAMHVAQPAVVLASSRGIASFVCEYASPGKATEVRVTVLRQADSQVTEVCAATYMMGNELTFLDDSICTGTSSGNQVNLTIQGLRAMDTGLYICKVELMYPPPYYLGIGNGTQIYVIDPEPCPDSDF
Description: All ELISA were performed in a manner substantially similar to the description below or generally consistent with methods known in the art. Polystyrene 96-well microplates (Fisher #07-200-591) were coated with 1 μg/mL of human CTLA4-Fc (R&D #7268-CT) per well and stored overnight at 4° C. Plates were washed with 0.05% Tween in TBS (TBS-T), blocked with 1% BSA (Sigma Aldrich #B4287-25G), and washed with TBS-T. Serial dilutions of samples containing anti-CTLA4 antibodies described below were made in assay buffer (PBS+0.05% Tween+1% BSA), added to plate, and shaken orbitally at 100 RPM at room temperature for one hour. After washing with TBS-T, anti-human Kappa light chain [clone: SB81a]-HRP (Abcam #ab79115) diluted to 1:8000 in assay buffer was applied to the wells and shaken at room temperature for one hour. Plates were washed with TBS-T, HRP substrate (Super Signal Pico Chemiluminescent Substrate, Thermo #37069) was applied to plate, and luminescence was recorded using a spectrophotometer (BioTek). Data was analyzed with GraphPad Prism.

[3] = target: T1, FcγRIIIa on Jurkat effector cells …; experiment: cell-based or functional assay; remark: listed apart in the source
[4] = target: T1, FcγRIIIa on Jurkat effector cells …; experiment: cell-based or functional assay; remark: listed apart in the source
[5] = target: T3, rhCTLA4-Fc (recombinant human CTLA4-Fc) (human, UniProt P16410 36-162, limits assumed); experiment: SPR, channel Ch1
T3 construct: Used in SPR with the Fabs; not shown: Fc part; not described
T3 sequence (P16410 36-162 limits assumed): as above
Description: (§1) All Surface Plasmon Resonance (SPR) analysis were performed in a manner substantially similar to the description below or generally consistent with methods known in the art. SPR was performed on certain antibodies to assess binding between the antibody, or fragment thereof, and a target protein, such as human CTLA4 (huCTLA4), cynomolgus CTLA4 (cynoCTLA4), or FcγRIIIa (CD16a). […] SPR analysis was performed on a GE Biacore T200 instrument at 37° C. The antibody and isotype control (reference channel) were coupled at 100 RU immobilization level to CM5 chip (GE Healthcare). Peptides were synthesized and diluted into HBS-EP+ running buffer (GE Healthcare). The binding data were analyzed using Biacore Evaluation Software, version 3.0.

[6] = target: T4, cynoCTLA4-Fc (cynomolgus, UniProt G7PL88 36-161); experiment: SPR, channel Ch1
T4 construct: also called cynomolgus CTLA4-Fc
T4 sequence (G7PL88 entry or part of it limits assumed): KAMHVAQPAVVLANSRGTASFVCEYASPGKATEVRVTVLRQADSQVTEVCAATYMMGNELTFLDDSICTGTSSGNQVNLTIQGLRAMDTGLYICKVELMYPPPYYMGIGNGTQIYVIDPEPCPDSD
Description: as §1

[7] = target: T3, rhCTLA4-Fc (recombinant human CTLA4-Fc); experiment: SPR, channel Ch2
Description: as §1

[8] = target: T4, cynoCTLA4-Fc; experiment: SPR, channel Ch2
Description: as §1

[9] = target: T3, rhCTLA4-Fc (recombinant human CTLA4-Fc); experiment: SPR, channel Ch3
Description: as §1

[10] = target: T4, cynoCTLA4-Fc; experiment: SPR, channel Ch3
Description: as §1

[11] = target: T3, rhCTLA4-Fc (recombinant human CTLA4-Fc); experiment: SPR, average of three channels
Description: as §1

[12] = target: T4, cynoCTLA4-Fc; experiment: SPR, average of three channels
Description: as §1

[13] = target: T5, human CTLA4 (huCTLA4) (human, UniProt P16410 36-161, limits assumed); experiment: SPR, Biacore T200, 37 C
T5 sequence (P16410 36-161 limits assumed): as the sequence (G7PL88 entry or part of it limits assumed) above, with N14S, T18I, M106L counted along it
Description: as §1

[14] = target: cynomolgus CTLA4 (cynoCTLA4) (cynomolgus, UniProt G7PL88 36-161); experiment: SPR, Biacore T200, 37 C
cynomolgus CTLA4 (cynoCTLA4), sequence (G7PL88 entry or part of it limits assumed): as the sequence (G7PL88 entry or part of it limits assumed) above
Description: as §1

[15] = target: T5, human CTLA4 (huCTLA4); experiment: SPR, Biacore T200, 37 C; reference ipilimumab
Description: as §1

[16] = target: T5, human CTLA4 (huCTLA4); experiment: SPR (Biacore), fit of the sensorgrams of FIG. 2A
Description: as §1

T1 sequence (P08637 whole entry): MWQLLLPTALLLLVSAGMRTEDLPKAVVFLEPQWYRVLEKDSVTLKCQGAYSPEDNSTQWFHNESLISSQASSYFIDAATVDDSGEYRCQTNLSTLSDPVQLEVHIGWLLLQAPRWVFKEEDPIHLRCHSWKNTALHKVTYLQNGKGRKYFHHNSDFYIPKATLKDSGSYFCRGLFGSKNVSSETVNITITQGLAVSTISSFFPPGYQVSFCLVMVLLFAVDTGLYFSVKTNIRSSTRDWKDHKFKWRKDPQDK

B1: Antibody 1-1 (version of humanized anti-CTLA4 Antibody 1 having a wild-type Fc region) (antibody, V domains shown)
VH: QVQLQESGPGLVKPSETLSLTCSVTYHTITSGYDWTWIRKPPGKGMEWIGYISYSGNTNYNPSLKSRVTISRDTSKNQFFLKLSSVTAADTAVYYCASMMVPHYYVMDAWGQGTLVTVSSA
VL: DIVMTQTPLSLSVTPGQPASISCRSSQSLLNSDGNTYLYWYLQKPGQSPQLLIYLVSKLGSGVPNRFSGSGSGTDFTLKISRVEAEDVGVYYCVQGTHDPWTFGGGTKVEIKR
notes: VL 25 / VH 26 are inferred from the parallel a)/b) order of the embodiments and because 30/31 go with the CDRs of Antibody 2; Full antibody with wild-type Fc
- EC50 of reporter activation (RLU), ADCC FcγRIIIa reporter bioassay with CTLA4 target cells [1]: 1.05 ng/mL
- EC50 [2]: 0.41 nM

B4: Antibody 2-aFuc (afucosylated version of Antibody 2) (antibody, V domains shown)
VH: QVQLVQSGAEVKKPGSSVKVSCKASGYTFTNYFMNWVRQAPGQGLEWMGRVDPEQGRADYAEKFKKRVTITADKSTSTAYMELSSLRSEDTAVYYCARRAMDNYGFAYWGQGTLVTVSSA
VL: EIVLTQSPDFQSVTPKEKVTITCSANSALSYMYWYQQKPDQSPKLWVHGTSNLASGVPSRFSGSGSGTDFTLTINSLEAEDAATYYCHHWSNTQWTFGGGTKVEIKR
modifications: afucosylated Fc glycan
notes: Afucosylated full antibody
- EC50 of reporter activation (RLU), ADCC FcγRIIIa reporter bioassay with CTLA4 target cells [4]: 0.0177 ng/mL
- EC50 of reporter activation (RLU), ADCC FcγRIIIa reporter bioassay with CTLA4 target cells [3]: 0.0177 ng/mL
- EC50 [2]: 0.36 nM

B5: Antibody 2-Fab (a Fab of Antibody 2) (Fab, V domains shown)
VH: QVQLVQSGAEVKKPGSSVKVSCKASGYTFTNYFMNWVRQAPGQGLEWMGRVDPEQGRADYAEKFKKRVTITADKSTSTAYMELSSLRSEDTAVYYCARRAMDNYGFAYWGQGTLVTVSS
VL: B4 VL
notes: Fab
- Kd [5]: 0.00453 nM
- koff [5]: 1.63e-06 s⁻¹
- kon [5]: 361000 M⁻¹ s⁻¹
- Kd [6]: 0.623 nM
- koff [6]: 0.000226 s⁻¹
- kon [6]: 363000 M⁻¹ s⁻¹
- Kd [7]: 0.00151 nM
- koff [7]: 5.19e-07 s⁻¹
- kon [7]: 345000 M⁻¹ s⁻¹
- Kd [8]: 0.794 nM
- koff [8]: 0.000229 s⁻¹
- kon [8]: 289000 M⁻¹ s⁻¹
- Kd [9]: 0.00555 nM
- koff [9]: 1.84e-06 s⁻¹
- kon [9]: 331000 M⁻¹ s⁻¹
- Kd [10]: 0.92 nM
- koff [10]: 0.000234 s⁻¹
- kon [10]: 254000 M⁻¹ s⁻¹
- Kd [11]: 0.00386 nM
- Kd [12]: 0.779 nM

B6: Antibody 2-1 (version of humanized anti-CTLA4 Antibody 2 having a wild-type Fc region) (antibody)
VH: not shown
VL: EIVLTQSPDFQSVTPKEKVTITCSANSALSYMYWYQQKPDQSPKLWVHGTSNLASGVPSRFSGSGSGTDFTLTINSLEAEDAATYYCHHWSNTQWTFGGGTKVEIKRTVAAPSVFIFPPSDEQLKSGTASVVCLLNNFYPREAKVQWKVDNALQSGNSQESVTEQDSKDSTYSLSSTLTLSKADYEKHKVYACEVTHQGLSSPVTKSFNRGEC
notes: Full antibody with wild-type Fc; copies: 2 + 2
- EC50 [2]: 0.33 nM

Second part, the binder after the results:

- EC50 of reporter activation (RLU), ADCC FcγRIIIa reporter bioassay with CTLA4 target cells [1]: 0.163 ng/mL
- EC50 of reporter activation (RLU), ADCC FcγRIIIa reporter bioassay with CTLA4 target cells [3]: 0.163 ng/mL
- EC50 [2]: 0.41 nM
B2: Antibody 1-aFuc (afucosylated version of Antibody 1) (antibody, V domains shown)
VH: B1 VH
VL: B1 VL
modifications: afucosylated Fc glycan
notes: Variable domains inferred as for Antibody 1-1; Afucosylated full antibody

- EC50 of reporter activation (RLU), ADCC FcγRIIIa reporter bioassay with CTLA4 target cells [1]: 0.327 ng/mL
- EC50 [2]: 0.56 nM
B3: Antibody 1-2 (version of Antibody 1 having a S239D mutation and an I332E mutation in the Fc region) (antibody, V domains shown)
VH: B1 VH
VL: B1 VL
notes: Variable domains inferred as for Antibody 1-1; Full antibody with S239D and I332E in the Fc region

- Kd [13]: 0.091 nM
- Kd [14]: 0.131 nM
- fold greater binding affinity than ipilimumab (by KD) [15]: ~18 fold
- koff [16]: 3.33e-05 s⁻¹
- kon [16]: 366000 M⁻¹ s⁻¹
B7: Antibody 2-6 (a version of Antibody 2 having a S239D mutation, an I332E mutation in the Fc region) (antibody)
VH: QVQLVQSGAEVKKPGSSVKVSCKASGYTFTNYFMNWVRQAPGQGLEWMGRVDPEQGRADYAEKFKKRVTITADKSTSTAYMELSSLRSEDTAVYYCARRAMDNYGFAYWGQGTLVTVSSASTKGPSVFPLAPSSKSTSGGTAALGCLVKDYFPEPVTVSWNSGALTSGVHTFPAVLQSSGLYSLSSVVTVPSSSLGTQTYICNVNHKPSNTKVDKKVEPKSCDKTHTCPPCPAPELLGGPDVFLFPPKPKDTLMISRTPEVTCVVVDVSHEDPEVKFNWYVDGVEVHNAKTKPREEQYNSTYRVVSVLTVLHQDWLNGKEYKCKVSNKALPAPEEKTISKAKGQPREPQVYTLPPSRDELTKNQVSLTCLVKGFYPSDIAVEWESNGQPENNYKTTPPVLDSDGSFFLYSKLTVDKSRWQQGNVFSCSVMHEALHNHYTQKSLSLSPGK
VL: B6 VL
notes: copies: 2 + 2

Reference: patent US20220064301A1 (XILIO DEVELOPMENT, published 2022)
